Test results from article PMC7530888 (Nucleic Acids Research, 2020).
“And” between values parts separate entries of the source, which are not always exact repeats. Equal values may be shown once.

Assay: Small angle X-ray scattering
Type: physicochemical, M. tuberculosis
Conditions: for Rg [from Guinier] / Rg [from P(r)]: BM29 ESRF, 10°C; for Rg [from Guinier]: 50 mM Tris pH 8.0, 200 mM NaCl, 2 mM βME; for Rg [from P(r)]: pH 8.0

MtbLigA+Nicked DNA: MtbLigA in complex with 27-mer nicked DNA (S1)
Rg [from Guinier]: 4.49±0.07 nm
Rg [from P(r)]: 4.49±0.06 nm

MtbLigA: M. tuberculosis NAD^+-dependent DNA ligase A, full-length
Rg [from Guinier]: 5.22±0.08 nm
Rg [from P(r)]: 5.20 nm and 5.20±0.06 nm
Rg in presence of nicked DNA (presence of nicked DNA substrate (S1), from P(r)): 4.49 nm
